Reference: PMC7864074, “Functions of Gle1 are governed by two distinct modes of self-association” (The Journal of Biological Chemistry, 2020)
Substitutions are numbered along the chain they refer to.

B1: MBP-Gle1^1–152 (domain or fragment, human, UniProt Q53GS7 1-152, looked up)
chain: MPSEGRCWETLKALRSSDKGRLCYYRDWLLRREDVLEECMSLPKLSSYSGWVVEHVLPHMQENQPLSETSPSSTSASALDQPSFVPKSPDASSAFSPASPATPNGTKGKDESQHTESMVLQSSRGIKVEGCVRMYELVHRMKGTEGLRLWQE
notes: source: E. coli Rosetta, purified (amylose resin eluted with maltose, ion exchange); not shown: MBP, N-terminal, kept
B2: Gle1^152–360 (domain or fragment, human, UniProt Q53GS7 152-360, looked up)
chain: EEQERKVQALSEMASEQLKRFDEWKELKQHKEFQDLREVMEKSSREALGHQEKLKAEHRHRAKILNLKLREAEQQRVKQAEQERLRKEEGQIRLRALYALQEEMLQLSQQLDASEQHKALLKVDLAAFQTRGNQLCSLISGIIRASSESSYPTAESQAEAERALREMRDLLMNLGQEITRACEDKRRQDEEEAQVKLQEAQMQQGPEAH
notes: also called coiled-coil domain; source: E. coli Rosetta, purified (amylose resin, on-column cleavage, 30% ammonium sulfate precipitation, S200 SEC)
B3: Gle1^(1–360 Δ45–54) (domain or fragment, human, UniProt Q53GS7 1-360, looked up)
chain: MPSEGRCWETLKALRSSDKGRLCYYRDWLLRREDVLEECMSLPKHVLPHMQENQPLSETSPSSTSASALDQPSFVPKSPDASSAFSPASPATPNGTKGKDESQHTESMVLQSSRGIKVEGCVRMYELVHRMKGTEGLRLWQEEQERKVQALSEMASEQLKRFDEWKELKQHKEFQDLREVMEKSSREALGHQEKLKAEHRHRAKILNLKLREAEQQRVKQAEQERLRKEEGQIRLRALYALQEEMLQLSQQLDASEQHKALLKVDLAAFQTRGNQLCSLISGIIRASSESSYPTAESQAEAERALREMRDLLMNLGQEITRACEDKRRQDEEEAQVKLQEAQMQQGPEAH
notes: also called Gle1^(1–360 45–54); source: E. coli Rosetta, purified (amylose resin, on-column cleavage, S200 SEC)
B4: Gle1^(1–360 8D) (domain or fragment, human, UniProt Q53GS7 1-360, looked up)
chain: MPSEGRCWETLKALRSSDKGRLCYYRDWLLRREDVLEECMSLPKLSSYSGWVVEHVLPHMQENQPLSETSPSSTSASALDQPSFVPKSPDASSAFSPASPATPNGTKGKDESQHTESMVLQSSRGIKVEGCVRMYELVHRMKGTEGLRLWQEEQERKVQALSEMASEQLKRFDEWKELKQHKEFQDLREVMEKSSREALGHQEKLKAEHRHRAKILNLKLREAEQQRVKQAEQERLRKEEGQIRLRADYADQEEMLQDSQQDDASEQHKALLKVDLAAFQTRGNQLCSLISGIIRASSESSYPTAESQAEAERADREDRDLDMNDGQEITRACEDKRRQDEEEAQVKLQEAQMQQGPEAH
notes: source: E. coli Rosetta, purified
B5: Gle1^1–360 (domain or fragment, human, UniProt Q53GS7 1-360, looked up)
chain: B4 chain with D248L, D251L, D258L, D262L, D315L, D318M, D322L, D325L
notes: human Gle1, N-terminal region, residues 1-360; also called WT Gle1^1–360; Gle1 N-terminal region; source: E. coli Rosetta, purified (amylose resin, on-column cleavage, S200 SEC)

Legend:
[1] = biological target: SspB-Gle1^152–360 fusion protein (E. coli | human) (UniProt Q53GS7); assay: SEC-MALS; ACCORD (forced dimerization by SspB); Superose 6 10/300 GL; 20 mM HEPES (pH 7.6), 200 mM NaCl, 5% glycerol, 0.5 mM TCEP, 0.05% azide
[2] = biological target: the molecule itself; assay: SEC; S200 size-exclusion chromatography; 20 mM HEPES, pH 7.5, 200 mM NaCl, 0.5 mM TCEP, 10% glycerol; MBP as a size reference
[3] = biological target: the molecule itself; assay: native gel or EMSA; 4–15% acrylamide gradient native PAGE, 150 V for 90 min, Coomassie staining

| Molecule | binding result [2] | further results |
| --- | --- | --- |
| SspB-Gle1^152–360 fusion protein (from UniProt Q53GS7 152-360) | – | stoichiometry N [1]: 2 |
| B1 | binds | – |
| B2 | – | binding result [3]: binds |
| B3 | binds | – |
| B4 | binds | – |
| B5 | binds | – |
